Consider three proteins from article PMC8786727, “Oligomerization of the FliF Domains Suggests a Coordinated Assembly of the Bacterial Flagellum MS Ring” (Frontiers in Microbiology, 2021).

Data set [1] concerns the molecule itself. The data set can be described thus: cryo-EM 2D classification; protein at 10 mg/ml in 50 mM Hepes pH 9.0, 150 mM NaCl; symmetry read from top-view 2D classes; no 3D structure.
Data set [2] deals with the molecule itself. The data set can be described thus: SEC; purified protein on Superdex 200 10/300 or Superose 6 10/300; 50 mM Hepes pH 8.0 or 9.0, 500 mM NaCl; oligomeric state from the elution volume.

B1: S. Typhimurium FliF RBM2 (FliF_(124–229)) (domain or fragment)
chain: SQFSEQVNYQRALEGELARTIETLGPVKSARVHLAMPKPSLFVREQKSPSASVTVTLEPGRALDEGQISAVVHLVSSAVAGLPPGNVTLVDQSGHLLTQSNTSGRD
notes: FliF, Salmonella enterica serovar Typhimurium, residues 124-229 (RBM2 and linker L2); Made by site-directed mutagenesis from the FliF 50-438 pET-28a construct; also called RBM2 + L2; source: E. coli BL21 DE3, purified (Ni-NTA, SEC on Superdex 200); copies: 23
As for B1, the “stoichiometry N” value in data set [1] turned out to be 23.

B2: S. Typhimurium FliF RBM3 (FliF_(231–438)) (domain or fragment)
chain: NDAQLKFANDVESRIQRRIEAILSPIVGNGNVHAQVTAQLDFANKEQTEEHYSPNGDASKATLRSRQLNISEQVGAGYPGGVPGALSNQPAPPNEAPIATPPTNQQNAQNTPQTSTSTNSNSAGPRSTQRNETSNYEVDRTIRHTKMNVGDIERLSVAVVVNYKTLADGKPLPLTADQMKQIEDLTREAMGFSDKRGDTLNVVNSPFS
notes: FliF, Salmonella enterica serovar Typhimurium, residues 231-438 (RBM3); Made by site-directed mutagenesis from the FliF 50-438 pET-28a construct; Forms rings; the number of subunits of this construct was not measured; source: E. coli BL21 DE3, purified (Ni-NTA, SEC on Superose 6)
In the case of B2, the binding result in data set [2] is reported as “binds”.

B3: S. Typhimurium FliF RBM1-RBM2-RBM3 (FliF_(50–438)) (domain or fragment)
chain: DYRTLFSNLSDQDGGAIVAQLTQMNIPYRFANGSGAIEVPADKVHELRLRLAQQGLPKGGAVGFELLDQEKFGISQFSEQVNYQRALEGELARTIETLGPVKSARVHLAMPKPSLFVREQKSPSASVTVTLEPGRALDEGQISAVVHLVSSAVAGLPPGNVTLVDQSGHLLTQSNTSGRDLNDAQLKFANDVESRIQRRIEAILSPIVGNGNVHAQVTAQLDFANKEQTEEHYSPNGDASKATLRSRQLNISEQVGAGYPGGVPGALSNQPAPPNEAPIATPPTNQQNAQNTPQTSTSTNSNSAGPRSTQRNETSNYEVDRTIRHTKMNVGDIERLSVAVVVNYKTLADGKPLPLTADQMKQIEDLTREAMGFSDKRGDTLNVVNSPFS
notes: FliF (flagellar M-ring protein), Salmonella enterica serovar Typhimurium, residues 50-438 (RBM1, RBM2 and RBM3, without the two trans-membrane helices); full length is 1-560; Synthetic gene in pET-28a; 33-fold symmetry seen in top-view cryo-EM 2D classes; the rings also stick together (~10 MDa by SEC-MALS); also called StFliF_(50–438); periplasmic region of FliF; source: E. coli BL21 DE3, …
For the protein B3, in data set [1], the “stoichiometry N” value amounted to 33.
